These are literature values, as cited in US12440573B2, “Antibody-conjugates for targeting of tumours expressing PTK7” (Synaffix B.V., priority 2022, dated 2025).

Data set [1] concerns patient-derived, tumor xenograft preclinical models.
In data set [2] the test system is locally advanced/metastatic, PTK7-positive NSCLC, TNBC, and platinum-resistant OvCa. Particulars: previously treated patients, administered every 2 or 3 weeks.

B1: PF-06647020: prior-art ADC: humanized anti-PTK7 antibody with auristatin microtubule inhibitor payload (Aur0101) (conjugate, chains of the INN, looked up)
VH: QVQLVQSGPEVKKPGASVKVSCKASGYTFTDYAVHWVRQAPGKRLEWIGVISTYNDYTYNNQDFKGRVTMTRDTSASTAYMELSRLRSEDTAVYYCARGNSYFYALDYWGQGTSVTVSS
VL: EIVLTQSPATLSLSPGERATLSCRASESVDSYGKSFMHWYQQKPGQAPRLLIYRASNLESGIPARFSGSGSGTDFTLTISSLEPEDFAVYYCQQSNEDPWTFGGGTKLEIK
modifications: Aur0101 auristatin payload
For B1, in data set [1], the tumor regression result is given as “prolonged tumor regression”. In data set [2], the clinical activity entry was “preliminary clinical activity” and the safety profile result was “tolerable safety profile”.
